The supplement of paper PMC10567573

B1: ZNF232 (parent)
chain: HSGEKPFICKECGKAYGWCSELIR
B2: FUT8 (parent)
chain: YPSYKVREKIETVKYPTYPEAEK

Variants of: B1
Experiment: protein stability index of a GFP-peptide fusion (GPS, HEK-293T) (PSI 1-6); higher = more stable
Conditions: c terminus: a fixed tail appended
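Further: lentivirally expressed fusions sorted by FACS into six bins by GFP to DsRed ratio, PSI derived from sequencing read proportions per bin multiplied by bin number.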

Protein stability index of substitutions, site by site:
G3: V 2, Q 1.97, W 1.86, P 2.22, S 2.14, L 1.57, A 1.86, D 2.32, E 2.29, R 1.61, T 2.07, Y 1.88, K 1.99, I 1.87, H 1.47, N 2.07, M 2.49, F 2.13, C 2.5
S2: N 2.58, K 1.74, V 1.84, M 2.07, D 2.51, E 2.35, W 1.68, I 2.21, Y 1.81, H 1.91, P 2.33, F 2.87, A 1.7, T 1.76, R 1.64, G 2.12, Q 2.04, L 2.4, C 2.12
E4: D 1.91, K 1.54, C 1.9, H 2.17, L 2.76, I 1.27, M 1.46, F 1.37, A 1.55, P 2.22, Q 1.53, N 1.95, G 1.71
H1: P 2.37, S 2.33, K 2.12, L 1.9, C 1.61, W 1.81, V 1.88, E 2.4, Y 2.28, R 2.45, A 1.89, D 2.31, M 1.16, I 2.21, F 2.76, T 1.82, G 2.55, Q 2.32, N 2.15

Variants of: B2
Experiment: as above
Conditions: c terminus: native

Protein stability index, by site and new letter:
P16: N 4.12, M 4, R 3.95, V 4.6, T 4.13, W 2.78, L 4.03, K 4.19, C 3.7, I 3.65, Y 3.62, E 4.29, F 4.79, S 3.75, G 4.28, Q 4.14, H 4.06, A 3.89, D 4.4
K23: P 3.88, C 3.19, M 2.94, S 3.46, N 3.95, W 2.53, H 4.15, A 2.92, Q 4.04, I 4.41, E 1.93, R 1.82, F 3.68, Y 2.9, G 3.96, T 3.36, D 4.61, V 3.4, L 3
E11: F 3.15, I 3.34, N 3.1, Y 3.44, P 4.12, K 4.32, L 4.01, H 3.8, C 3.91, Q 4.27, V 3.59, T 3.5, G 3.59, A 4.3, S 4.07, M 3.46
A21: W 4.21, G 4.29, K 3.26, F 4.18, V 3.89, N 3.45, R 3.43, C 3.74, Y 3.67, P 4.04, I 3.85, M 4.7, D 4.34, S 4.1, T 3.67, E 4.97, H 4.56, L 3.38
Y15: F 4.49, C 3.88, K 5.03, L 4.33, A 3.39, P 4.45, Q 4.77, T 3.77, R 4.22, I 4.58, S 4.64, E 4.59, M 4.48, D 5.2, V 4.18, H 4.72, W 2.88, G 4.85
E22: H 4.28, L 1.97, A 3.28, S 4.04, M 3.45, D 4.31, R 4.2, N 4.36, Q 4.44, C 1.66, T 3.32, Y 2.93, P 4.46, K 4.54, W 2.91, F 4.11, V 1.9, I 2.17
I10: P 4.09, C 4.21, S 4.46, W 2.87, T 4.97, L 4.28, E 4.61, N 4.87, K 4.57, Q 4.17, F 4.36, V 4.46, M 4.35, H 4.27, D 4.71, R 4.56, Y 4.29, A 4.19
Y18: H 4.31, D 4.47, W 3.63, K 2.85, F 3.89, L 3.87, C 4.98, G 3.52, S 4.68, N 4.63, R 5.1, E 4.65, I 3.96, M 4.15, P 5.06, Q 4.54, V 4.24, T 4.7, A 4.08
P19: H 3.18, K 4.19, N 4.11, T 3.45, Y 1.25, A 3.79, V 2.98, I 3.59, F 2.01, C 3, W 2.37, R 3.71, G 3.94, S 3.94, D 3.66, Q 3.85, M 3.04, E 4.67
K14: R 4.27, S 4.44, Y 3.43, H 3.95, C 4.18, Q 4.21, L 2.97, P 4.09, E 4.03, F 2.73, G 4.98, T 3.61, N 4.62, V 3.65, A 4.17, I 3.88, W 1.68, M 3.85
E20: G 4.26, A 3.93, Y 3.52, S 3.56, W 2.9, D 4.62, V 3.48, N 4.41, F 3.39, C 3.33, Q 3.61, M 3.55, I 2.88, K 4.69, R 3.63, T 3.87, H 3.97, L 3.5
T17: Q 4.3, V 4, Y 2.87, N 4.75, G 4.02, H 4.41, C 3.8, F 3.45, E 4.43, K 4.69, R 4.34, L 3.6, D 3.7, I 3.7, M 3.77, S 4.79, P 4.46, A 4.56, W 1.94
V13: N 4.26, E 4.79, S 4.69, H 3.97, R 4.34, D 4.64, M 3.7, K 4.62, T 4.18, Q 4.49, G 4.66, P 4.24, A 4.7, Y 3.72, C 4.12, L 4.29, F 3.77, W 3.04, I 4.29
T12: K 4.71, N 3.62, C 4.17, L 3.14, F 3.06, W 3.21, G 4.01, D 4.57, E 4.33, R 4.05, Y 4.15, P 4.49, V 2.14, H 3.25, S 3.91, Q 4.94, A 3.92
K9: T 4.44, M 4.24, Y 2.56, S 4.28, P 4.74, R 3.98, V 3.23, W 1.99, N 4.38, Q 4.25
